Tests used:
Wnt signaling = assay: Canonical Wnt signaling in HUVECs (immunoblotting, β-catenin immunofluorescence); format: cell-based, human
Description: FIG. 12 is a panel with a schematic, pictures showing that Dand5 reduces canonical Wnt signaling in HUVECs. HUVECs were plated to confluence and received a 2 h scratch in the presence or absence of Dand5 ([…]) or IWR1 (3 μM). β-catenin (green) localization was examined by immunofluorescence with phalloidin and DAPI (nuclei) to identify the cell boundaries and nucleus. […] Scale bars, […]).
Cells were washed with cold PBS and extracted in Laemmli's buffer, followed by sonication. Samples were run on SDS-PAGE gels and transferred onto nitrocellulose membranes. Membranes were blocked with 5% Bovine Serum Albumin (BSA) and probed with primary antibodies overnight at 4° C.: beta-Catenin (Cell Signaling Technology), phospho-beta-catenin (Cell Signaling Technology), Axin2 (Cell Signaling Technology), beta-Actin (Santa Cruz Technologies). HRP-conjugated secondary antibodies (Vector Laboratories) were used to detect primary antibodies.
We next evaluated the molecular mechanisms underlying the effects of DAND5 on endothelial cells. […] Wnt signaling regulates fundamental aspects of vascular development, including cell fate specification, proliferation and survival. […] HUVECs were treated for up to 24 hours with DAND5 or IWR-1, an inhibitor of Wnt canonical signaling. Protein extracts were harvested and subjected to immunoblotting against downstream effectors of Wnt signaling. […] The levels of β-catenin at different subcellular localizations are regulated by a variety of processes including site-specific phosphorylation of β-catenin. In the absence of an active Wnt signaling, β-catenin localization at cellular junctions is reduced and cytoplasmic β-catenin associates with the destruction complex (6).

[1] = tested on: choroidal neovascularization; assay: Laser-induced choroidal neovascularization (CNV); format: in vivo, mouse
Description: Three-month-old C57BL/6J mice were anesthetised with a ketamine/xylazine mix prior to applying a photocoagulating laser (400 mW intensity, 0.05 s exposure time). Four spots were burned around the optical nerve. Mice received 100 ng of recombinant human DAND5 intravitreally or similar volume of vehicle in the contralateral eye. Eyes were enucleated after 14 days and processed for immunostaining.
Ocular globes were initially fixed for 15 min in 4% paraformaldehyde (PFA). Retinas or choroids were collected after eyes dissection in PBS and blocked 1 h in PBS 3% BSA 0.1% Triton X-100™. Fixation was prolonged in 1% PFA overnight for choroid extraction or eyes sectioning. […] Quantitative analysis of tufts, vaso-obliterated or vessel areas were performed using imageJ/Swift_NV™ as previously described (1). Neovascular tuft formation was quantified by comparing the number of pixels in the affected areas with the total number of pixels in the retina. The avascular area in the retina was measured in the same way using an anti-DAND5/COCO polyclonal goat IgG antibody (AF3047, R&D systems).
The effects of DAND5 on choroidal neovascularization (CNV) were also evaluated by subjecting mice to laser-induced CNV, a model which recapitulates the CNV occurring in wet AMD patients. […]

Wnt-induced angiogenesis = assay: Wnt1 and DAND5 co-injection during retinal vascular development (P1 to P5); format: in vivo, mouse; details: quantification of vascular branches in treated eyes
Description: FIG. 13 is a panel with pictures and graphs showing that Dand5 opposes Wnt1-mediated hypervascularization during retinal vascular development. FIG. 13A: Schematic representation of experimental design. C57B6 pups were injected at P1 with PBS, Dand5 (60 ng/mL), Wnt1, or Wnt1 and Dand5 together at various molar ratios (1N, 5N and 10N). FIG. 13B: Representative images of retinas treated with PBS, Dand5 (1N) or Wnt1 (1N). FIG. 13C: Representative images of retinas treated with PBS or with Wnt1 (5N and 10N) alone or in combination with Danb5. Dand5 Flatmounts retinas were stained with Isolectin B4 to visualize the vasculature. FIG. 13D: Quantification of vascular branches in treated eyes. […] To address the antagonism of DAND5 on Wnt-induced angiogenesis, retinas were injected with recombinant DAND5 (60 ng) with increasing concentrations of Wnt1 (0, 1, 5 or 10× molar ratio) at P1 and retinas were harvested at P5 (FIG. 13A).

HUVECs = assay: Scratch (wound healing) assay, endothelial cell migration; format: cell-based, human
Description: Confluent HUVEC monolayers were grown in 6-well plates. Cells were starved 18 hours in EBM-2 medium with 1% FBS. A horizontal wound was created using a sterile 200 μl pipette tip. Next, the cells were washed with EBM2 at 37° C. and incubated in EBM-2 supplemented with VEGF-A (25 ng/ml) or DAND5 (60 ng/ml) at 37° C. for 16 hours. Pictures of scratch wounds were taken just before stimulation (time 0) and after 16 h. Migration % was calculated using ImageJ™ software.
To evaluate the cellular mechanisms underlying the inhibitory effects of DAND5 on endothelial cells sprouting, we assessed the effects of DAND5 on endothelial cell migration and proliferation. Endothelial cell migration plays an essential role in neovascularization, as endothelial tip cells will need to migrate in response to VEGF, and constitutes one of the first steps of the angiogenic response. To address the effects of DAND5 on EC migration, HUVECs were subjected to a wound healing assay. Briefly, a scratch was performed on a confluent monolayer of HUVECs, and wound closure was evaluated at the time of the scratch and again after […].

[2] = HUVECs treated for up to 24 hours, immunoblotting

B1: DAND5: human recombinant DAND5/COCO biologically active fragment produced in E. coli, predicted 18.2 kDa monomer, R&D systems 3047-CC-050 (protein)
chain: MRPEPQSPRPQSWAAANQTWALGPGALPPLVPASALGSWKAFLGLQKARQLGMGRLQRGQDEVAAVTLPLNPQEVIQGMCKAVPFVQVFSRPGCSAIRLRNHLCFGHCSSLYIPGSDPTPLVLCNSCMPARKRWAPVVLWCLTGSSASRRRVKISTMLIEGCHCSPKA
Question: Which results are given for B1?
Answer: levels of Axin2 (Wnt signaling; [2]): increased levels of Axin2; levels of phosphorylated beta-catenin (Wnt signaling; [2]): increased levels of phosphorylated beta-catenin; levels of total beta-catenin (Wnt signaling; [2]): decreased levels of total beta-catenin; cytoplasmic β-catenin (Wnt signaling; confluent HUVECs, 2 h scratch, Dand5 60n/mL or IWR1 3 μM): increased cytoplasmic β-catenin; β-catenin subcellular localization (Wnt signaling; staining of HUVECs cultured in the presence of DAND5): decreased membrane localization and increased internalization of β-catenin in the cytoplasm; inhibitory effect on retinal and choroidal neovascularization compared with Flt1Fc ([1]; OIR and laser-induced CNV together): significantly better than VEGF inhibition with Flt1Fc; area of CNV ([1]; laser impact, intravitreal delivery, 14 days, compared with controls): significant decrease in the area of CNV; mutual antagonism on vascular branches (Wnt-induced angiogenesis): mutually antagonist activities; polarization of the Golgi apparatus towards the leading edge (HUVECs; cells at the wound edge): did not significantly affect polarization of the Golgi apparatus towards the leading edge; wound closure (VEGF-induced cell migration) (HUVECs; confluent HUVEC monolayer, DAND5 60 ng/ml, evaluated after 18 hours): significantly delayed wound closure compared to control treatment

Source: patent publication US20220265772A1, “USES OF DAN FAMILY BMP ANTAGONISTS FOR INHIBITING OCULAR NEOVASCULARIZATION AND TREATING OCULAR CONDITIONS” (9636137 Canada Inc., priority 2019, published 2022)
